Experimental data as given in the supplement of paper PMC9112550, “Optimization of the antimicrobial peptide Bac7 by deep mutational scanning” (BMC Biology, 2022).

Tested on: Escherichia coli TOP10
Assay: shrunken log2 fold change of peptide-encoding DNA abundance (4.5 h post-induction vs induction); higher = less antimicrobial activity (less host growth inhibition)
Conditions: time post-induction: 4.5 h; library: site-saturation at positions 5, 18, 19, 20
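Also: peptides expressed intracellularly from a pBAD plasmid library in pooled LB shake-flask culture, induced with 0.3% L-arabinose, DNA abundance read by NGS, three biological replicates, DESeq2 with apeglm shrinkage.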

Sequence	shrunken log2 fold change
RRIRNRPPRLPRPRPRPSYLPRP	-0.959
RRIRIRPPRLPRPRPRPVYGPRP	-0.351
RRIRQRPPRLPRPRPRPKYVPRP	0.178
RRIRKRPPRLPRPRPRPPLPPRP	0.74
RRIRVRPPRLPRPRPRPLCIPRP	-0.499
RRIRCRPPRLPRPRPRPKRAPRP	0.778
RRIRERPPRLPRPRPRPTVKPRP	-0.218
RRIRIRPPRLPRPRPRPVKWPRP	-0.0064
RRIRTRPPRLPRPRPRPWLPPRP	-0.164
RRIRQRPPRLPRPRPRPMHMPRP	-0.369
RRIRCRPPRLPRPRPRPDGEPRP	0.0622
RRIRFRPPRLPRPRPRPHGDPRP	0.0644
RRIRARPPRLPRPRPRPMREPRP	0.844
RRIRKRPPRLPRPRPRPRLPPRP	0.768
RRIRIRPPRLPRPRPRPHHFPRP	-0.313
RRIRSRPPRLPRPRPRPFHIPRP	-1.07
RRIRSRPPRLPRPRPRPKKRPRP	0.716
RRIRMRPPRLPRPRPRPFHKPRP	0.0887
RRIRTRPPRLPRPRPRPFCMPRP	-0.24
RRIRERPPRLPRPRPRPTNPPRP	-0.182
RRIRERPPRLPRPRPRPIFWPRP	0.167
RRIRKRPPRLPRPRPRPKDHPRP	0.308
RRIRCRPPRLPRPRPRPDQHPRP	0.0432
RRIRFRPPRLPRPRPRPAIDPRP	-0.00326
RRIRCRPPRLPRPRPRPYCQPRP	-0.219

Sequence	shrunken log2 fold change
RRIRHRPPRLPRPRPRPTYIPRP	-0.573
RRIRVRPPRLPRPRPRPPVDPRP	0.0819
RRIRVRPPRLPRPRPRPFARPRP	0.206
RRIRERPPRLPRPRPRPNCVPRP	-0.0533
RRIRMRPPRLPRPRPRPFVTPRP	-0.269
RRIRFRPPRLPRPRPRPCNVPRP	-0.01
RRIRQRPPRLPRPRPRPNQMPRP	-0.0557
RRIRWRPPRLPRPRPRPTEHPRP	-0.093
RRIRFRPPRLPRPRPRPDLCPRP	-0.0489
RRIRMRPPRLPRPRPRPSFYPRP	-0.29
RRIRDRPPRLPRPRPRPQCRPRP	0.0338
RRIRARPPRLPRPRPRPAMYPRP	0.0624
RRIRSRPPRLPRPRPRPPDDPRP	0.488
RRIRPRPPRLPRPRPRPYTHPRP	-1.35
RRIRGRPPRLPRPRPRPIMKPRP	0.227
RRIRARPPRLPRPRPRPEGLPRP	0.527
RRIRWRPPRLPRPRPRPHTCPRP	-0.00188
RRIRGRPPRLPRPRPRPNAQPRP	0.836
RRIRARPPRLPRPRPRPIAMPRP	0.207
RRIRCRPPRLPRPRPRPEQRPRP	0.23
RRIRSRPPRLPRPRPRPTRGPRP	0.581
RRIRYRPPRLPRPRPRPKMFPRP	-0.845
RRIRVRPPRLPRPRPRPDWKPRP	-0.0682
RRIRLRPPRLPRPRPRPQLSPRP	-0.0956
RRIRCRPPRLPRPRPRPYENPRP	-0.145

Sequence	shrunken log2 fold change
RRIRQRPPRLPRPRPRPTKKPRP	-0.0835
RRIRRRPPRLPRPRPRPEVNPRP	-0.0845
RRIRVRPPRLPRPRPRPHFRPRP	-0.0776
RRIRVRPPRLPRPRPRPKWTPRP	0.0514
RRIRDRPPRLPRPRPRPGCTPRP	0.727
RRIRARPPRLPRPRPRPPPIPRP	1
RRIRERPPRLPRPRPRPINGPRP	0.0683
RRIRERPPRLPRPRPRPSACPRP	0.0132
RRIRFRPPRLPRPRPRPTQPPRP	0.202
RRIRPRPPRLPRPRPRPYPWPRP	-0.345
RRIRNRPPRLPRPRPRPDIRPRP	-0.01
RRIRMRPPRLPRPRPRPGCIPRP	0.0871
RRIRWRPPRLPRPRPRPMYKPRP	-0.0607
RRIRVRPPRLPRPRPRPTTDPRP	-0.0625
RRIRTRPPRLPRPRPRPNHKPRP	-0.443
RRIRMRPPRLPRPRPRPRPFPRP	0.647
RRIRRRPPRLPRPRPRPLMMPRP	0.8
RRIRYRPPRLPRPRPRPAANPRP	-0.0861
RRIRIRPPRLPRPRPRPWREPRP	0.158
RRIRCRPPRLPRPRPRPGWDPRP	0.257
RRIRSRPPRLPRPRPRPFIAPRP	-0.275
RRIRARPPRLPRPRPRPKGIPRP	-0.0515
RRIRHRPPRLPRPRPRPDSPPRP	0.0316
RRIRKRPPRLPRPRPRPKDEPRP	0.0833
RRIRFRPPRLPRPRPRPTTFPRP	-0.388

Sequence	shrunken log2 fold change
RRIRNRPPRLPRPRPRPGQGPRP	-0.0357
RRIRKRPPRLPRPRPRPHNHPRP	-0.533
RRIRPRPPRLPRPRPRPKFGPRP	-0.0973
RRIRWRPPRLPRPRPRPDTPPRP	0.126
RRIRVRPPRLPRPRPRPQQMPRP	0.0393
RRIRVRPPRLPRPRPRPICVPRP	-0.0314
RRIRKRPPRLPRPRPRPCDTPRP	0.015
RRIRFRPPRLPRPRPRPQAMPRP	0.0123
RRIRTRPPRLPRPRPRPPFVPRP	0.227
RRIRLRPPRLPRPRPRPRDMPRP	0.00118
RRIRMRPPRLPRPRPRPAPLPRP	0.541
RRIRIRPPRLPRPRPRPQQYPRP	-0.808
RRIRVRPPRLPRPRPRPHEIPRP	0.026
RRIRDRPPRLPRPRPRPYINPRP	-0.108
RRIRIRPPRLPRPRPRPTDCPRP	-0.196
RRIRNRPPRLPRPRPRPIHTPRP	-0.0125
RRIRRRPPRLPRPRPRPIWKPRP	-0.184
RRIRTRPPRLPRPRPRPLAEPRP	0.107
RRIRWRPPRLPRPRPRPFNSPRP	-0.207
RRIRLRPPRLPRPRPRPSENPRP	0.124
RRIRHRPPRLPRPRPRPGQEPRP	-0.00664
RRIRLRPPRLPRPRPRPSVAPRP	-0.0589
RRIRVRPPRLPRPRPRPTEWPRP	0.322
RRIRIRPPRLPRPRPRPGIKPRP	-0.0876
RRIRCRPPRLPRPRPRPRKKPRP	-0.125

Sequence	shrunken log2 fold change
RRIRDRPPRLPRPRPRPKQDPRP	0.172
RRIRGRPPRLPRPRPRPTFIPRP	-0.0836
RRIRERPPRLPRPRPRPCKCPRP	-0.01
RRIRHRPPRLPRPRPRPGMCPRP	-0.493
RRIRSRPPRLPRPRPRPGFSPRP	-0.0153
RRIRERPPRLPRPRPRPEDMPRP	-0.0115
RRIRERPPRLPRPRPRPNGQPRP	0.0342
RRIRCRPPRLPRPRPRPRAVPRP	0.405
RRIRYRPPRLPRPRPRPHPEPRP	0.037
RRIRTRPPRLPRPRPRPDDEPRP	0.0101
RRIRYRPPRLPRPRPRPWFRPRP	-0.567
RRIRLRPPRLPRPRPRPAPSPRP	0.163
RRIRDRPPRLPRPRPRPKDIPRP	-0.0599
RRIRPRPPRLPRPRPRPMDVPRP	-0.0123
RRIRERPPRLPRPRPRPNKMPRP	-0.324
RRIRNRPPRLPRPRPRPTEWPRP	0.0839
RRIRARPPRLPRPRPRPHYMPRP	-0.381
RRIRRRPPRLPRPRPRPYWNPRP	-0.368
RRIRGRPPRLPRPRPRPFKRPRP	0.301
RRIRARPPRLPRPRPRPGVGPRP	0.805
RRIRCRPPRLPRPRPRPMSWPRP	-0.159
RRIRYRPPRLPRPRPRPKEAPRP	-0.0135
RRIRPRPPRLPRPRPRPEYIPRP	-0.0411
RRIRPRPPRLPRPRPRPSSWPRP	0.104
RRIRERPPRLPRPRPRPMVTPRP	-0.0939
